Results on 167 variants are retold here after the Human Domainome abundance scans (Beltran et al. 2025).

± gives the uncertainty stated by the source.

B1: Chromodomain-helicase-DNA-binding protein 5, residues 411 to 463; numbered along this chain, Q8TDI0 (parent)
chain: EEDDHMEFCRVCKDGGELLCCDACPSSYHLHCLNPPLPEIPNGEWLCPRCTCP

Variants of B1 are the subject of the series. In words: abundance fitness (aPCA) (normalised: wild type 0, dead -1); higher = more abundant; growth selection in yeast, the domain comes from the species named. The conditions noted are these: Homo sapiens.
For the variant G15Q, the abundance fitness amounted to 0.047 ± 0.1.
Take G15K: the abundance fitness amounted to 0.191 ± 0.097.
For the variant G15H, the abundance fitness is -0.159 ± 0.11.
In the case of G15R, the abundance fitness was 0.087 ± 0.058.
For D14W, the abundance fitness was -0.232 ± 0.096.
Turning to D14E, the abundance fitness turned out to be 0.059 ± 0.13.
As to D14Q, the abundance fitness is -0.2 ± 0.18.
With D14N, the abundance fitness was -0.061 ± 0.048.
Turning to D14S, the abundance fitness was -0.17 ± 0.073.
For the variant D14V, the abundance fitness is -0.157 ± 0.12.
Take D14P: the abundance fitness was -0.984 ± 0.17.
The same measure for D14L: -0.153 ± 0.053; for D14I: -0.519 ± 0.15.
Turning to D14M, the abundance fitness is -0.051 ± 0.09.
On to D14Y, for which the abundance fitness was -0.452 ± 0.15.
In the case of D14K, the abundance fitness is -0.133 ± 0.1.
Take D14C: the abundance fitness is -0.291 ± 0.083.
The same measure for D14G: 0.086 ± 0.085; for D14H: -0.037 ± 0.11.
Take C24I: the abundance fitness was -0.886 ± 0.3.
The same measure for C24Y: -0.606 ± 0.14; for C24V: -0.589 ± 0.072.
As to C24E, the abundance fitness is -0.564 ± 0.11.
The same measure for C24N: -0.904 ± 0.43; for C24M: -0.781 ± 0.1.
Regarding C24L, the abundance fitness was -1.15 ± 0.15.
Take C24R: the abundance fitness is -0.392 ± 0.085.
As for C24P, the abundance fitness is -0.791 ± 0.24.
Turning to C24A, the abundance fitness is -0.637 ± 0.12.
As to C24Q, the abundance fitness is -1.11 ± 0.28.
Consider C24K, for which the abundance fitness is -0.437 ± 0.12.
Regarding C24D, the abundance fitness was -0.703 ± 0.16.
The same measure for C24H: 0.139 ± 0.13.
Take C24G: the abundance fitness is -0.723 ± 0.1.
The same measure for C24T: -0.464 ± 0.12; for P25I: -0.04 ± 0.1.
The same measure for P25H: 0.024 ± 0.09; for P25C: 0.087 ± 0.061.
The same measure for P25L: -0.157 ± 0.067.
P25E: the abundance fitness amounted to 0.054 ± 0.084.
The same measure for P25N: -0.025 ± 0.079.
With P25M, the abundance fitness was -0.11 ± 0.077.
Turning to P25F, the abundance fitness is -0.094 ± 0.087.
Regarding P25R, the abundance fitness was 0.087 ± 0.063.
In the case of P25W, the abundance fitness was -0.067 ± 0.072.
With P25Q, the abundance fitness is -0.118 ± 0.089.
With P25G, the abundance fitness is 0.085 ± 0.067.
Take P25K: the abundance fitness turned out to be 0.058 ± 0.075.
As for P25V, the abundance fitness came to 0.03 ± 0.076.
As to P25A, the abundance fitness was 0.094 ± 0.07.
For the variant P25T, the abundance fitness came to 0.044 ± 0.065.
Take P25S: the abundance fitness was 0.022 ± 0.055.
On to P25Y, for which the abundance fitness worked out at 0.023 ± 0.071.
For the variant S26V, the abundance fitness stood at 0.02 ± 0.063.
Consider S26K, for which the abundance fitness was -0.062 ± 0.09.
Consider S26E, for which the abundance fitness was 0.011 ± 0.068.
The same measure for S26N: 0.167 ± 0.37; for S26W: -0.37 ± 0.083; for S26Q: -0.387 ± 0.095.
Take S26A: the abundance fitness is 0.044 ± 0.054.
The same measure for S26D: 0.011 ± 0.099; for S26C: -0.107 ± 0.054; for S26R: -0.106 ± 0.078.
S26I: the abundance fitness was -0.08 ± 0.1.
On to S26G, for which the abundance fitness was -0.036 ± 0.073.
For the variant S26L, the abundance fitness is 0.001 ± 0.05.
With S26T, the abundance fitness amounted to 0.002 ± 0.051.
As to S26H, the abundance fitness was -0.008 ± 0.067.
Regarding R10L, the abundance fitness was -0.06 ± 0.056.
The same measure for R10S: -0.089 ± 0.055; for R10A: -0.219 ± 0.075.
For the variant R10N, the abundance fitness was determined as 0.026 ± 0.11.
Turning to R10I, the abundance fitness is -0.089 ± 0.086.
The same measure for R10G: -0.035 ± 0.053; for R10Q: -0.106 ± 0.11; for R10F: 0.178 ± 0.12.
In the case of R10H, the abundance fitness is -0.028 ± 0.12.
Regarding R10P, the abundance fitness is -0.413 ± 0.088.
The same measure for R10C: -0.296 ± 0.087.
Take R10W: the abundance fitness was -0.212 ± 0.086.
Consider R10K, for which the abundance fitness is -0.218 ± 0.12.
Turning to R10T, the abundance fitness worked out at 0.012 ± 0.086.
R10Y: the abundance fitness came to 0.037 ± 0.061.
The same measure for R10D: -0.119 ± 0.053.
As for R10V, the abundance fitness was -0.25 ± 0.065.
As for G16E, the abundance fitness is 0.411 ± 0.12.
Turning to G16L, the abundance fitness was -0.28 ± 0.078.
The same measure for G16K: -0.482 ± 0.16; for G16M: -0.301 ± 0.13.
Regarding G16I, the abundance fitness was -0.145 ± 0.32.
For the variant G16A, the abundance fitness was -0.629 ± 0.17.
Consider G16V, for which the abundance fitness is -0.36 ± 0.063.
The same measure for G16N: -0.369 ± 0.4; for G16D: -0.003 ± 0.14; for G16R: -0.518 ± 0.14.
With G16S, the abundance fitness was -0.023 ± 0.11.
Turning to G16C, the abundance fitness was -0.183 ± 0.21.
The same measure for G16P: -0.832 ± 0.15; for S27L: -0.039 ± 0.054; for S27H: 0.026 ± 0.064.
As for S27Q, the abundance fitness was -0.064 ± 0.068.
Take S27E: the abundance fitness is -0.212 ± 0.076.
Turning to S27N, the abundance fitness stood at 0.02 ± 0.06.
Take S27G: the abundance fitness is -0.168 ± 0.061.
The same measure for S27I: -0.345 ± 0.12; for S27F: 0.152 ± 0.092; for S27P: -0.47 ± 0.064.
Turning to S27C, the abundance fitness was -0.035 ± 0.082.
With S27D, the abundance fitness was -0.3 ± 0.073.
The same measure for S27R: -0.056 ± 0.041; for S27M: -0.052 ± 0.078; for S27A: 0.07 ± 0.073.
The same measure for D22H: 0.005 ± 0.054; for D22T: 0.038 ± 0.053.
Take D22P: the abundance fitness turned out to be 0.008 ± 0.055.
Consider D22S, for which the abundance fitness stood at 0.034 ± 0.041.
For D22Y, the abundance fitness is -0.059 ± 0.044.
As to D22L, the abundance fitness was -0.026 ± 0.044.
The same measure for D22K: 0.108 ± 0.052; for D22G: 0.049 ± 0.05; for D22Q: 0.099 ± 0.048.
For the variant D22R, the abundance fitness is 0.071 ± 0.044.
On to D22M, for which the abundance fitness was 0.051 ± 0.066.
For the variant D22V, the abundance fitness is -0.085 ± 0.046.
The same measure for D22I: -0.04 ± 0.068; for D22W: -0.082 ± 0.064.
D22A: the abundance fitness came to 0.05 ± 0.045.
For the variant D22C, the abundance fitness is -0.046 ± 0.08.
Consider D22E, for which the abundance fitness came to 0.061 ± 0.077.
As to D22N, the abundance fitness was determined as 0.093 ± 0.053.
Regarding D22F, the abundance fitness was -0.139 ± 0.066.
The same measure for L18Q: -0.415 ± 0.15.
As to L18V, the abundance fitness was 0.065 ± 0.082.
On to L18R, for which the abundance fitness is -0.084 ± 0.062.
Take L18G: the abundance fitness was -0.655 ± 0.13.
Regarding L18I, the abundance fitness is 0.035 ± 0.14.
With L18S, the abundance fitness was -0.754 ± 0.13.
With L18W, the abundance fitness is -0.972 ± 0.17.
As to L18N, the abundance fitness is -0.932 ± 0.49.
Turning to L18E, the abundance fitness is -0.812 ± 0.25.
As to L18C, the abundance fitness was -0.288 ± 0.14.
Take L18T: the abundance fitness is -0.076 ± 0.099.
The same measure for L18F: -0.969 ± 0.24; for L18D: -0.972 ± 0.32; for L18A: -0.769 ± 0.15.
The same measure for L18M: -0.019 ± 0.1; for L18P: -0.91 ± 0.29.
As for Y28C, the abundance fitness is -0.653 ± 0.095.
The same measure for Y28D: -0.405 ± 0.076.
The same measure for Y28A: -0.466 ± 0.066; for C20E: -0.049 ± 0.079; for C20G: 0.116 ± 0.052.
Regarding C20A, the abundance fitness came out at 0.071 ± 0.066.
The same measure for C20T: 0.123 ± 0.073; for C20K: 0.01 ± 0.083.
Turning to C20I, the abundance fitness was 0.073 ± 0.06.
With C20Y, the abundance fitness was determined as 0.125 ± 0.092.
The same measure for C20F: -0.05 ± 0.08; for C20S: -0.008 ± 0.055; for C20L: 0.006 ± 0.047.
The same measure for C20M: -0.017 ± 0.081; for C20H: -0.065 ± 0.094.
Consider C20W, for which the abundance fitness was -0.029 ± 0.069.
The same measure for C20V: 0.007 ± 0.052; for C20P: 0.146 ± 0.073; for C20D: 0.217 ± 0.08.
Regarding C20Q, the abundance fitness was 0.031 ± 0.047.
